Assay results: article doi:10.1101/212290 (bioRxiv, 2017)

Target: IscU-IscS complex (E. coli, UniProt P0A6B7;P0ACD4, biotin (site not stated))
Assay: BLI

Chain of IscU-IscS complex (P0A6B7 whole entry, chain 1 of 2): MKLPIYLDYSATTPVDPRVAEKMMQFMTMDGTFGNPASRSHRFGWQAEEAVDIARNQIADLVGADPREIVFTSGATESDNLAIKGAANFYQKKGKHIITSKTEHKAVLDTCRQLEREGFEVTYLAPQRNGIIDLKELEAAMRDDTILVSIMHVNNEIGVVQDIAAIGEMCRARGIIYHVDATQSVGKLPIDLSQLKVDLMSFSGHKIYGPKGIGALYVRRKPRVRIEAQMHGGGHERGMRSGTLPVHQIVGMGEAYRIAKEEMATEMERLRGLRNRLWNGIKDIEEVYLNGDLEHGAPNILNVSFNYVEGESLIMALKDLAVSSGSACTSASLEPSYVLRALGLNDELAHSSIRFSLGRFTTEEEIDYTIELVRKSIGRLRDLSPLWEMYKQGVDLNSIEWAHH
Chain of IscU-IscS complex (P0ACD4 2-128, chain 2 of 2): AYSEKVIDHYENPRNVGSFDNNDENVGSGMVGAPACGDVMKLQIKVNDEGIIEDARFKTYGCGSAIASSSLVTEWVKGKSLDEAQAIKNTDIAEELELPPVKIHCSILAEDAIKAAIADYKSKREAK

B1: IscX (natural protein)
chain: MGLKWTDSREIGEALYDAYPDLDPKTVRFTDMHQWICDLEDFDDDPQASNEKILEAILLVWLDEAE
modifications: most likely a mixed disulfide with beta-mercaptoethanol (+76 Da) on the majority of the protein
  Kd: 8 ± 2 µM
